# Reference: US20240043537A1 (MacroGenics, published 2024)
# Numbering of substitutions follows the chain as printed.
# T1: 5T4 on A498 cells (UniProt Q13641 32-420, limits assumed)
# T1 construct: whole, on cells; also called 5T4-expressing A498 cells; A-498 kidney carcinoma (5T4)
# T1 sequence (looked up): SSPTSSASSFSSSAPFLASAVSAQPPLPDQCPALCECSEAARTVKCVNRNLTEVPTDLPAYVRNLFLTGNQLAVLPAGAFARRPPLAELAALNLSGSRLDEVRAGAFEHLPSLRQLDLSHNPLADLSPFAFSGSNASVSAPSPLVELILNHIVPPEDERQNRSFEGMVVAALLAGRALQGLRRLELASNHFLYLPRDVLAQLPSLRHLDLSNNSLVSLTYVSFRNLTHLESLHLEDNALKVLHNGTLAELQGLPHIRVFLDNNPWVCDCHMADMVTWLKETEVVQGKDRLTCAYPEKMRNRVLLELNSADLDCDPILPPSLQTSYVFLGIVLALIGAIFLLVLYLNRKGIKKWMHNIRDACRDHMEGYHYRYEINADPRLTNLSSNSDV
# B1: 5T4-WT (bispecific antibody)
# chain 1: DIQMTQSPSSLSASVGDRVTITCRASQGISNYLAWFQQKPGKAPKSLIYRANRLQSGVPSRFSGSGSGTDFTLTISSLQPEDVATYYCLQYDDFPWTFGQGTKLEIKGGGSGGGGEVQLVESGGGLVQPGGSLRLSCAASGFTFSTYAMNWVRQAPGKGLEWVGRIRSKYNNYATYYADSVKGRFTISRDDSKNSLYLQMNSLKTEDTAVYYCVRHGNFGNSYVSWFAYWGQGTLVTVSSGGCGGGEVAALEKEVAALEKEVAALEKEVAALEKGGGDKTHTCPPCPAPEAAGGPSVFLFPPKPKDTLMISRTPEVTCVVVDVSHEDPEVKFNWYVDGVEVHNAKTKPREEQYNSTYRVVSVLTVLHQDWLNGKEYKCKVSNKALPAPIEKTISKAKGQPREPQVYTLPPSREEMTKNQVSLWCLVKGFYPSDIAVEWESNGQPENNYKTTPPVLDSDGSFFLYSKLTVDKSRWQQGNVFSCSVMHEALHNHYTQKSLSLSPGK
# chain 2: QAVVTQEPSLTVSPGGTVTLTCRSSTGAVTTSNYANWVQQKPGQAPRGLIGGTNKRAPWTPARFSGSLLGGKAALTITGAQAEDEADYYCALWYSNLWVFGGGTKLTVLGGGGSGGGGQVQLVQSGAEVKKPGASVKVSCKASGYTFTSFWMHWVRQAPGQGLEWMGRIDPNRGGTEYNEKAKSRVTMTADKSTSTAYMELSSLRSEDTAVYYCAGGNPYYPMDYWGQGTTVTVSSGGCGGGKVAALKEKVAALKEKVAALKEKVAALKE
# chain 3: not shown
# notes: Three-chain diabody with Fc; Kabat position 65 of the CD3 VH is G in this construct; also called 5T4 x CD3 mAb 1 DART-B-type diabody
# B2: 5T4-M1 (bispecific antibody)
# chain 1: B1 chain 1 with G183D, S225T
# chain 2: B1 chain 2
# chain 3: not shown
# notes: Three-chain diabody with Fc; also called 5T4 x CD3 mAb 1 M1 DART-B-type diabody
# B3: 5T4-M2 (bispecific antibody)
# chain 1: B1 chain 1 with G183D, G217K, S225T
# chain 2: B1 chain 2
# chain 3: not shown
# notes: Three-chain diabody with Fc; also called 5T4 x CD3 mAb 1 M2 DART-B-type diabody
# B4: 5T4-M18 (bispecific antibody)
# chain 1: B1 chain 1 with A148G, G183D
# chain 2: B1 chain 2
# chain 3: not shown
# notes: Three-chain diabody with Fc; also called 5T4 x CD3 mAb 1 M18 DART-B-type diabody
# B5: DART-A-M23 (bispecific antibody)
# chain 1: DFVMTQSPDSLAVSLGERVTMSCKSSQSLLNSGNQKNYLTWYQQKPGQPPKLLIYWASTRESGVPDRFSGSGSGTDFTLTISSLQAEDVAVYYCQNDYSYPYTFGQGTKLEIKGGGSGGGGEVQLVESGGGLVQPGGSLRLSCAASGFTFSTYAMNWVRQAPGKGLEWVGRIRSKYNNYATYYADSVKDRFTISRDDSKNSLYLQMNSLKTEDTAVYYCVRHGNFGNSYVSWFAYWGQGTLVTVSSGGCGGGKVAALKEKVAALKEKVAALKEKVAALKE
# chain 2: QAVVTQEPSLTVSPGGTVTLTCRSSTGAVTTSNYANWVQQKPGQAPRGLIGGTNKRAPWTPARFSGSLLGGKAALTITGAQAEDEADYYCAEWYSNLWVFGGGTKLTVLGGGGSGGGGEVQLVQSGAELKKPGASVKVSCKASGYTFTDYYMKWVRQAPGQGLEWIGDIIPSNGATFYNQKFKGRVTITVDKSTSTAYMELSSLRSEDTAVYYCARSHLLRASWFAYWGQGTLVTVSSGGCGGGEVAALEKEVAALEKEVAALEKEVAALEK
# notes: also called CD123 x CD3 DART-A-type diabody with CD3 mAb 1 M23
# B6: DART-A-M26 (bispecific antibody)
# chain 1: B5 chain 1
# chain 2: B5 chain 2 with K55G, E92L
# notes: also called CD123 x CD3 DART-A-type diabody with CD3 mAb 1 M26
# B7: DART-A-M25 (bispecific antibody)
# chain 1: B5 chain 1
# chain 2: B5 chain 2 with G52D, E92L
# notes: also called CD123 x CD3 DART-A-type diabody with CD3 mAb 1 M25
# B8: DART-A-M24 (bispecific antibody)
# chain 1: B5 chain 1
# chain 2: B5 chain 2 with E92Q
# notes: also called CD123 x CD3 DART-A-type diabody with CD3 mAb 1 M24
# B9: DART-A-WT (bispecific antibody)
# chain 1: B5 chain 1
# chain 2: B5 chain 2 with E92L
# notes: Two-chain diabody without Fc; Kabat position 65 of the CD3 VH is D; also called CD3 Mab-1; Wild-Type
# Target: T1, 5T4 on A498 cells
# Experiment: Flow cytometry on A498 cells; detection with biotinylated anti-E/K-coil antibody and streptavidin-PE
# Protocol: FIG. 9A-9B show the ability of DART-B-type diabodies to bind to Disease Antigens. […] Binding was detected using biotinylated antibody specific for the diabodies' E/K coils and streptavidin-phycoerythrin (PE).
# The ability of such diabodies to bind to their respective Disease Antigen (i.e., CD123 or 5T4) on the surface of MOLM-13 leukemia (CD123) or A-498 kidney carcinoma (5T4) target cancer cells was assessed using FACS. Briefly, cells were incubated with the diabody molecules (in FACS buffer containing 10% human AB serum) in microtiter plates. The cells were washed and incubated with biotin-conjugated mouse anti-EK-coil antibody that recognizes the E-coil/K-coil (EK) Heterodimer-Promoting Domain of the diabodies mixed with streptavidin-phycoerythrin.
row,Binder,EC50 (read off the curve)
1,B1,~1 nM
2,B2,~1 nM
3,B3,~1 nM
4,B4,~1 nM

# Target: soluble human CD3 (human, UniProt P07766 23-126)
# Experiment: SPR (BIAcore), diabody over immobilized human CD3
# Protocol: The ability of the CD123-binding diabodies: CD123-WT, CD123-M1, CD123-M2 and CD123-M18 to bind to human CD3 and CD123 was also evaluated using BIAcore®. […] Table 14 presents the calculated kₐ, kd and KD from these studies.
# The ability of the 5T4-binding diabodies: 5T4-WT, 5T4-M1, 5T4-M2 and 5T4-M18 to bind to CD3 was also evaluated using BIAcore®, as described above. Table 15A presents the calculated kₐ, kd and KD.
# soluble human CD3, sequence (P07766 23-126): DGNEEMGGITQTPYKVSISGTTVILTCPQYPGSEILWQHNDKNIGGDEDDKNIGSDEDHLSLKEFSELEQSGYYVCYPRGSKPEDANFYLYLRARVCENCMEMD
Binder,Kd,koff,kon
B1,36 nM,0.0054 s⁻¹,150000 M⁻¹ s⁻¹
B2,326 nM,0.031 s⁻¹,95000 M⁻¹ s⁻¹
B3,118 nM,0.041 s⁻¹,350000 M⁻¹ s⁻¹
B4,453 nM,0.034 s⁻¹,75000 M⁻¹ s⁻¹

# Target: T2, CD3 (as used for the BIACORE kinetics of Table 11) (UniProt P07766 23-126)
# T2 construct: CD3 mAb 1 is described as an anti-human CD3 antibody
# Experiment: SPR (BIACORE)
# Protocol: Variants of the CD123×CD3 DART-A-type diabody (designated DART-A-WT; amino acid sequences provided above) were generated comprising the VH and VL Domains of the identified scFvs. Thus, a panel of DART-A-type diabodies, designated DART-A-M1-DART-A-M26, comprising vCD3-Binding Domains (such vCD3-Binding Domains being respectively designated “CD3 mAb 1 M1-CD3 mAb 1 M26”) were generated. The CD3-binding kinetics of DART-A-M1-DART-A-M26 were measured by BIACORE® and compared to DART-A-WT. Table 11 summarizes the CD3-binding kinetics of DART-A-WT and the DART-A-type diabodies comprising the vCD3-Binding Domains of CD3 mAb 1 M1-CD3 mAb 1 M26, ranked by kₐ (R denotes kₐ, kd, or kD ratio of variant DART-A-type diabody (comprising a vCD3-Binding Domain) to DART-A-WT (comprising the rCD3-Binding Domain of CD3 mAb 1)).
# T2 sequence (P07766 23-126): as above
Binder,Kd,R (KD ratio to DART-A-WT),R (ka ratio to DART-A-WT),R (kd ratio to DART-A-WT),koff,kon
B5,26.9 nM,3.3,0.9,3,0.0124 s⁻¹,459000 M⁻¹ s⁻¹
B6,54.4 nM,6.7,0.6,4.3,0.0174 s⁻¹,319000 M⁻¹ s⁻¹
B7,125 nM,15,0.3,4.7,0.0192 s⁻¹,154000 M⁻¹ s⁻¹
B8,14.5 nM,1.8,1.2,2.1,0.00861 s⁻¹,594000 M⁻¹ s⁻¹
B9,8.17 nM,1,1,1,0.00409 s⁻¹,500000 M⁻¹ s⁻¹

# Target: CD3 on T-cells (UniProt P07766 23-207)
# Experiment: cell-based or functional assay
# CD3 on T-cells, sequence (P07766 23-207): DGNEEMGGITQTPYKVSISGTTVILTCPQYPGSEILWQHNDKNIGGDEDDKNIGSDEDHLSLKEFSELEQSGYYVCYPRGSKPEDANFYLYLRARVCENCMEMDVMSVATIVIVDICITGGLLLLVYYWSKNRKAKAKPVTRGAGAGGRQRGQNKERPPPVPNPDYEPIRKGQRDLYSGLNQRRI
Binder,"EC50 of cytolysis at 18 hours (CTL assay, Pan-T-cells and MOLM-13, E:T = 5:1)","EC50 of cytolysis at 42 hours (CTL assay, Pan-T-cells and MOLM-13, E:T = 5:1)","R: ratio of 18 hour EC50 to DART-A-WT (CTL assay, Pan-T-cells and MOLM-13, E:T = 5:1)","R: ratio of 42 hour EC50 to DART-A-WT (CTL assay, Pan-T-cells and MOLM-13, E:T = 5:1)","max % CytoTox at 18 hours (CTL assay, Pan-T-cells and MOLM-13, E:T = 5:1)","max % CytoTox at 42 hours (CTL assay, Pan-T-cells and MOLM-13, E:T = 5:1)"
B5,0.421 ng/mL,0.061 ng/mL,5.3 ratio,21.6 ratio,49.3%,31.4%
B6,0.444 ng/mL,0.078 ng/mL,5.6 ratio,27.9 ratio,44.2%,28.2%
B7,0.585 ng/mL,0.1 ng/mL,7.4 ratio,35.7 ratio,46.6%,30.4%
B8,0.34 ng/mL,0.031 ng/mL,4.3 ratio,11.1 ratio,49.4%,31.1%
B9,0.079 ng/mL,0.003 ng/mL,1 ratio,1 ratio,39%,29.1%
